From paper PMC8754650, “Structural basis of DNA methylation-dependent site selectivity of the Epstein–Barr virus lytic switch protein ZEBRA/Zta/BZLF1”

Tests used:
[1] = target: GCN4 DBD WT (Saccharomyces cerevisiae, UniProt P03069 228-281); assay: FP; apparent; FP: PBS (137 mM NaCl, 2.7 mM KCl, 10 mM Na2HPO4, 1.8 mM KH2PO4) pH 7.4, 20 C, 10 nM duplex, 28 ng/ul herring testes DNA competitor; EMSA per cited ref with competitor DNA; conditions: protein: recombinant; tags: MBP; chain copies: 2; label: rhodamine 5' of strand 1; 5' overhang 1 nt each end
[2] = target: ZEBRA DBD WT (Epstein-Barr virus, UniProt P03206 175-236); assay: FP; apparent, Hill n=2; FP: PBS (137 mM NaCl, 2.7 mM KCl, 10 mM Na2HPO4, 1.8 mM KH2PO4) pH 7.4, 20 C, 10 nM duplex, 28 ng/ul herring testes DNA competitor; EMSA per cited ref with competitor DNA; conditions: protein: recombinant; tags: MBP; chain copies: 2; label: rhodamine 5' of strand 1; 5' overhang 1 nt each end
[3] = target: T1, Strep/FLAG:ZEBRA (Epstein-Barr virus, UniProt P03206 149-245); assay: EMSA; between ZRE2 and meZRE2; FP: PBS (137 mM NaCl, 2.7 mM KCl, 10 mM Na2HPO4, 1.8 mM KH2PO4) pH 7.4, 20 C, 10 nM duplex, 28 ng/ul herring testes DNA competitor; EMSA per cited ref with competitor DNA; conditions: protein: recombinant; tags: StrepII/FLAG; chain copies: 2; 5' overhang 2 nt each end
[4] = target: T1, Strep/FLAG:ZEBRA; assay: EMSA; between ZRE2 and meZRE2; slightly stronger than hemi C-2'; FP: PBS (137 mM NaCl, 2.7 mM KCl, 10 mM Na2HPO4, 1.8 mM KH2PO4) pH 7.4, 20 C, 10 nM duplex, 28 ng/ul herring testes DNA competitor; EMSA per cited ref with competitor DNA; conditions: protein: recombinant; tags: StrepII/FLAG; chain copies: 2; 5' overhang 2 nt each end
[5] = target: T1, Strep/FLAG:ZEBRA; assay: EMSA; tightest; FP: PBS (137 mM NaCl, 2.7 mM KCl, 10 mM Na2HPO4, 1.8 mM KH2PO4) pH 7.4, 20 C, 10 nM duplex, 28 ng/ul herring testes DNA competitor; EMSA per cited ref with competitor DNA; conditions: protein: recombinant; tags: StrepII/FLAG; chain copies: 2; 5' overhang 2 nt each end
[6] = target: T1, Strep/FLAG:ZEBRA; assay: EMSA; intermediate, similar to hemi-methylated sites; FP: PBS (137 mM NaCl, 2.7 mM KCl, 10 mM Na2HPO4, 1.8 mM KH2PO4) pH 7.4, 20 C, 10 nM duplex, 28 ng/ul herring testes DNA competitor; EMSA per cited ref with competitor DNA; conditions: protein: recombinant; tags: StrepII/FLAG; chain copies: 2; 5' overhang 2 nt each end

T1 sequence (P03206 149-245): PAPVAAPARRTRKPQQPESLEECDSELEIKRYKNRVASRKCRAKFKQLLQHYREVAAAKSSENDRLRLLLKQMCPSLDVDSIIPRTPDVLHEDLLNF
Chain of GCN4 DBD WT (P03069 228-281): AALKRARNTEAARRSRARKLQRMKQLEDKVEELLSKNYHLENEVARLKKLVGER
Chain of ZEBRA DBD WT (P03206 175-236): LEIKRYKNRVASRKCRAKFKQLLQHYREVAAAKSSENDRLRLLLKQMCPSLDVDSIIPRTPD

B1: AP-1 (FP) (dsDNA)
DNA 1: AGCTTATGAGTCATTTTAT
DNA 2: AATAAAATGACTCATAAGC
Kd [1]: 77.9 ± 8.8 nM
Kd [2]: 271 ± 25 nM

B2: hemi-me C-2' ZRE2 (EMSA) (dsDNA)
DNA 1: ATAGCTTATGAGCGATTTTATC
DNA 2: ATGATAAAATCGCTCATAAGCT
modifications: 5mC at position 11 of strand 2
binding result [3]: binds

B3: hemi-me C1 ZRE2 (EMSA) (dsDNA)
DNA 1: ATAGCTTATGAGCGATTTTATC
DNA 2: ATGATAAAATCGCTCATAAGCT
modifications: 5mC at position 13 of strand 1
binding result [4]: binds

B4: meZRE2 (EMSA) (dsDNA)
DNA 1: ATAGCTTATGAGCGATTTTATC
DNA 2: ATGATAAAATCGCTCATAAGCT
modifications: 5mC at position 13 of strand 1 and 11 of strand 2
binding result [5]: binds

B5: oriLyt ZRE5 (EMSA) (dsDNA)
DNA 1: ATAGCTTATGTGCAATTTTATC
DNA 2: ATGATAAAATTGCACATAAGCT
binding result [6]: binds
